Assay results taken from patent US20180087053, “ANTI-CANCER RNA APTAMERS” (CITY OF HOPE, published 2018).

Target: mortalin (mitochondrial Hsp70, mHSP70) on PANC-1 cell surface (Homo sapiens, UniProt P38646 P38646:47-679)
Experiment: flow; intact PANC-1 cells, 37 C, 15.6-500 nM aptamer; target identified as mortalin by pulldown/MS
Conditions: tags: endogenous, label: Cy3 (flow) or 3'-biotin (SPR, pulldown), multi-stem-loop (Mfold)
Procedure: FIG. 1A-1G: Showing the secondary structure and pancreatic cancer specific internalization (FIG. 1A). Cartoon of the secondary structures of P19 (SEQ ID NO:2) and P1 (SEQ ID NO:4) are shown; aptamers were selected from randomized N40 RNA libraries and were predicted using the Mfold program. (FIG. 1B) Cy3-labeled RNAs were tested for binding to PANC-1 and NC as control cells by flow cytometry. Data represent the average of three replicated. Initial RNA library pool is shown as Library, P1 and P19. Cy3 labeled P19 and P1 incubation in. (FIG. 1C) Cy3-labeled RNAs (100 nM) was tested for internalization by confocal in negative cells, PANC-1 and MIA PaCa-2: Cy3-labeled RNA. (FIG. 1D) Cy3-labeled RNAs (100 nM) was tested for the internalization in primary pancreatic epithelial cells; Cy3-labeled RNA. (FIG. 1E) The representative images by histopathological screen in pancreatic cancer and normal pancreas. The samples were stained with Cy3 labeled aptamer P1 and P19 respectively and examined at 100× magnification. White arrow indicate that P19 binding to cancer region. Cy3-labeled RNA. (FIG. 1F) A total of 72 patients of pancreatic adenocarcinoma had undergone. The Correlation coefficient between P1 and P19 is 0.891. […] Median fluorescence intensity (MFI) was measured and calculated using one site binding non-linear curve regression with a Graph Pad Prism.

mortalin (mitochondrial Hsp70, mHSP70) on PANC-1 cell surface, sequence (P38646 47-679, one chain of several): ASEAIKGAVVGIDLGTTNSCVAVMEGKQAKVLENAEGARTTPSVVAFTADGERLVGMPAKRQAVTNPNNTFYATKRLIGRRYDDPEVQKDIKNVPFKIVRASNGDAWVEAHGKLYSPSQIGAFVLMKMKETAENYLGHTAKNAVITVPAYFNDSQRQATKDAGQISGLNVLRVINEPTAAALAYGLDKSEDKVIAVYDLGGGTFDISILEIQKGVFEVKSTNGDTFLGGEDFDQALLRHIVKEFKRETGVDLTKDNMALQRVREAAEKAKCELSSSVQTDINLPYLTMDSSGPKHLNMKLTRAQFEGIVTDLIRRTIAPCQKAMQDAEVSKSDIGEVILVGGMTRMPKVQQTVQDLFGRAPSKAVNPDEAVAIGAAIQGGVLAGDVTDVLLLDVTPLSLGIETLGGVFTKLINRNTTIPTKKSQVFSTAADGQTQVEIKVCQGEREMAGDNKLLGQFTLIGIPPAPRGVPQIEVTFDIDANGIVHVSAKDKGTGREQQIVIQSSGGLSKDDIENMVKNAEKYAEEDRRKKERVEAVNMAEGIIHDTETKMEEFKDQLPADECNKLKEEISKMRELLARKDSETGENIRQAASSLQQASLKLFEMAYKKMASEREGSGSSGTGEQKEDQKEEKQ

B1: P19 (ssRNA)
RNA: GGGAGACAAGAAUAAACGCUCAAUGGCGAAUGCCCGCCUAAUAGGGCGUUAUGACUUGUUGAGUUCGACAGGAGGCUCACAACAGGC
modifications: 2'-F pyrimidines
Which Kd does the source give for B1 here?
Its Kd is 13.1 nM.
